Results as given in patent publication US6699662.

Target: T1, SarA (staphylococcal accessory regulator A), strain DB (Staphylococcus aureus) (UniProt Q2G2U9)
T1 sequence: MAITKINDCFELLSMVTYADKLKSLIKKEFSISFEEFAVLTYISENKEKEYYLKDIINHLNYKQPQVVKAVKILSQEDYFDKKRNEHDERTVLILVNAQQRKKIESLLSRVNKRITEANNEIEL
Assay: EMSA
Settings: same buffer; 1 dimer per DNA; dG dissociation 12.1 kcal/mol

In the case of “AC oligo (45 bp, footprint region of Chien and Cheung)”, the Kd is reported as 1 nM.
